Five substances from patent US6391637 can be followed below.

Assay [1] concerns the target CD40/Fc fusion protein (human) (UniProt P25942). As to the kind of experiment: BIAcore biosensor; CD40/Fc captured on the chip; first experiment; K2 (site 2).
For assay [2] the target is unchanged. As to the kind of experiment: BIAcore biosensor; CD40/Fc captured on the chip; second experiment; K2 (site 2). (In general: Surface plasmon resonance follows binding to a sensor surface in real time, without labels.)
The target is the same in assay [3]. As to the kind of experiment: BIAcore biosensor; CD40/Fc captured on the chip; first experiment; K1 (site 1).
Assay [4] has the same target. Kind of assay: BIAcore biosensor; CD40/Fc captured on the chip; second experiment; K1 (site 1).
Assay [5] has the same target. Kind of assay: BIAcore biosensor; CD40/Fc captured on the chip; second experiment.
For assay [6] the target is unchanged. Kind of assay: BIAcore biosensor; CD40/Fc captured by goat anti-human IgG1 Fc on the chip, CD40-L construct at increasing concentrations; first experiment.
Assay [7] has the same target. Kind of assay: BIAcore biosensor; CD40/Fc captured on the chip; first experiment.
Assay [8] shares this target. As to the kind of experiment: BIAcore biosensor; CD40/Fc captured on the chip; second experiment; K2 (site 2); site 1 not detected.
Assay [9] deals with CD40 on cells that express CD40 (UniProt P25942). As to the kind of experiment: cell-based or functional assay.
Chain of CD40 on cells that express CD40 (P25942 21-277 limits assumed): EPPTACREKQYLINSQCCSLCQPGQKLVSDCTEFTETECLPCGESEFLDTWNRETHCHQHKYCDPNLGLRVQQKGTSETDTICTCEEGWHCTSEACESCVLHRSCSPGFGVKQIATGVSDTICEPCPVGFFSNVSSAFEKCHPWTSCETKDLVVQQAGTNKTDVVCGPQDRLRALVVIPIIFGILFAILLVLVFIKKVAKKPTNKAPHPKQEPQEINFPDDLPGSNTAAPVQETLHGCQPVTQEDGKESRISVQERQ

Chain of trimeric human CD40-L (oligomerizing zipper fusion, Example 15) (P29965 51-261 limits assumed): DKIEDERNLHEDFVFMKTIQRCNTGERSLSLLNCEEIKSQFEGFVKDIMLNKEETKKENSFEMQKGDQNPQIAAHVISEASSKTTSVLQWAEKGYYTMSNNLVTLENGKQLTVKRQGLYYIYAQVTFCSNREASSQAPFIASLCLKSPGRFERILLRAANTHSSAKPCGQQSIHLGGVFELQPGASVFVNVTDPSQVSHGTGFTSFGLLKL
Chain of CD40/Fc fusion protein (human) (P25942 21-193): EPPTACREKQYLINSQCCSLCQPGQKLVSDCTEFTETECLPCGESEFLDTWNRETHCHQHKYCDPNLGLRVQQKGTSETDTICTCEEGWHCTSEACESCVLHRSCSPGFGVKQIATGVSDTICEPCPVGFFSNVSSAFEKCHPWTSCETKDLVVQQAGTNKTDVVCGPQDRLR

Consider “trimeric human CD40-L (oligomerizing zipper fusion, Example 15) (from UniProt P29965 51-261) (ligand)”, for which the Ka was 7.5e+07 M⁻¹ in [1], 2.6e+07 M⁻¹ in [2], 5e+09 M⁻¹ in assay [3] and 6.6e+08 M⁻¹ in assay [4]. In addition, the figures for the Site1 (mol/mol CD40/Fc) (mol/mol CD40/Fc) in [5] and in assay [6] were 0.26 and 0.04, respectively. Besides, the Site2 (mol/mol CD40/Fc) (mol/mol CD40/Fc) worked out at 0.41 in assay [5] and 0.68 in assay [7].

With “monomeric human CD40-L, preparation #2 (ligand)”, the Ka in assay [8] was 1.1e+07 M⁻¹. Moreover, the Site2 (mol/mol CD40/Fc) (mol/mol CD40/Fc) in assay [5] was found to be 1.27.

Regarding “wild type CD40 ligand/zipper domain fusion protein (WT) expressed in yeast”, in assay [9], the B-cell proliferation (U/µg), Experiment 1; WT was 77 U/µg and the B-cell proliferation (U/µg), Experiment 2; WT worked out at 15 U/µg.

Consider “trimeric murine CD40-L (oligomerizing zipper fusion) (ligand)”, for which, in assay [1], the Ka worked out at 1.6e+08 M⁻¹. In assay [3], this substance returned a Ka of 6e+10 M⁻¹. Moreover, in assay [7], the Site1 (mol/mol CD40/Fc) (mol/mol CD40/Fc) came to 0.02 and the Site2 (mol/mol CD40/Fc) (mol/mol CD40/Fc) was 0.44.

For the substance “monomeric human CD40-L, preparation #1 (ligand)”, in assay [8], the Ka was 4.6e+07 M⁻¹. Further, in assay [5], the Site2 (mol/mol CD40/Fc) (mol/mol CD40/Fc) was 1.2.
